IntAct's records for PubMed 29892012

B1: Coiled-coil alpha-helical rod protein 1 (Homo sapiens), Q8TD31 (parent)
chain: MFPPSGSTGLIPPSHFQARPLSTLPRMAPTWLSDIPLVQPPGHQDVSERRLDTQRPQVTMWERDVSSDRQEPGRRGRSWGLEGSQALSQQAEVIVRQLQELRRLEEEVRLLRETSLQQKMRLEAQAMELEALARAEKAGRAEAEGLRAALAGAEVVRKNLEEGSQRELEEVQRLHQEQLSSLTQAHEEALSSLTSKAEGLEKSLSSLETRRAGEAKELAEAQREAELLRKQLSKTQEDLEAQVTLVENLRKYVGEQVPSEVHSQTWELERQKLLETMQHLQEDRDSLHATAELLQVRVQSLTHILALQEEELTRKVQPSDSLEPEFTRKCQSLLNRWREKVFALMVQLKAQELEHSDSVKQLKGQVASLQEKVTSQSQEQAILQRSLQDKAAEVEVERMGAKGLQLELSRAQEARRRWQQQTASAEEQLRLVVNAVSSSQIWLETTMAKVEGAAAQLPSLNNRLSYAVRKVHTIRGLIARKLALAQLRQESCPLPPPVTDVSLELQQLREERNRLDAELQLSARLIQQEVGRAREQGEAERQQLSKVAQQLEQELQQTQESLASLGLQLEVARQGQQESTEEAASLRQELTQQQELYGQALQEKVAEVETRLREQLSDTERRLNEARREHAKAVVSLRQIQRRAAQEKERSQELRRLQEEARKEEGQRLARRLQELERDKNLMLATLQQEGLLSRYKQQRLLTVLPSLLDKKKSVVSSPRPPECSASAPVAAAVPTRESIKGSLSVLLDDLQDLSEAISKEEAVCQGDNLDRCSSSNPQMSS
partner: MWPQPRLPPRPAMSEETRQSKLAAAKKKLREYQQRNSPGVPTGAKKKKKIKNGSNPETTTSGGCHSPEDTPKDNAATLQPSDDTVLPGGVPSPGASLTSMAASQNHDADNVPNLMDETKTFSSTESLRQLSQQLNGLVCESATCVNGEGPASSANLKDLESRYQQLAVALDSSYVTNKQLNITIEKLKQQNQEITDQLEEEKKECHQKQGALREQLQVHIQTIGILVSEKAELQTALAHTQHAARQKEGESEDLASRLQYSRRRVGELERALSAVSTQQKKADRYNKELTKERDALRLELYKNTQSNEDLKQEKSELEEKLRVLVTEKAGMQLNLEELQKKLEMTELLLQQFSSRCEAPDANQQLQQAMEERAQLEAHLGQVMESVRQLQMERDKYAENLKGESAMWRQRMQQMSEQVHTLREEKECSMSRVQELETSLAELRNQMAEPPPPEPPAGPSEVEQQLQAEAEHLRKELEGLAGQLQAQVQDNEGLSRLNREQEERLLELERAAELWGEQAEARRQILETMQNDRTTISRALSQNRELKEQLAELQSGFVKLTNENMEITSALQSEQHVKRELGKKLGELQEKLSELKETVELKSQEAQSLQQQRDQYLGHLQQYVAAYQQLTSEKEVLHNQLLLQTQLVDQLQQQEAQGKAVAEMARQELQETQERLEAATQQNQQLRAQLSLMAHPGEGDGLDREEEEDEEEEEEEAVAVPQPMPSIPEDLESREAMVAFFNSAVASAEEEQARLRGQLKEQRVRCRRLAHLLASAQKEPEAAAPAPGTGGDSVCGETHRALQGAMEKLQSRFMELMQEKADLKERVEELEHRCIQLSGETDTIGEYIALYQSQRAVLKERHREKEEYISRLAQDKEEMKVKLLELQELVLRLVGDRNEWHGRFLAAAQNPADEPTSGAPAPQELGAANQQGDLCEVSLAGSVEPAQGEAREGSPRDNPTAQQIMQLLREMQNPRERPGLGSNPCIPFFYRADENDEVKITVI
B2: Coiled-coil alpha-helical rod protein 1 (Homo sapiens), Q8TD31 (parent)
chain: B1 chain
partner: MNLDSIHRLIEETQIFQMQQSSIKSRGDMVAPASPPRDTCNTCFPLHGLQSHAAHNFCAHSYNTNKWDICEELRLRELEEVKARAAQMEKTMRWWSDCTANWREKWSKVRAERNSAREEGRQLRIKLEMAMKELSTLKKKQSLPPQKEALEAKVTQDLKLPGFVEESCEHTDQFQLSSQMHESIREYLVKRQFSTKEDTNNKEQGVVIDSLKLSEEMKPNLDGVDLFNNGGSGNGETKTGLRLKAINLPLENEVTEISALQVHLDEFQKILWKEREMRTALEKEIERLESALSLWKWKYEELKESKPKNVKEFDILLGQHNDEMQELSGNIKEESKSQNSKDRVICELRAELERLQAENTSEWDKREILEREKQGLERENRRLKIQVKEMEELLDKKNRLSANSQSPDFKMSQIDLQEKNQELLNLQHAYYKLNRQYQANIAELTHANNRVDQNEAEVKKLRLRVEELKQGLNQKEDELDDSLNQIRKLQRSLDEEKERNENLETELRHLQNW
B3: Histone-lysine N-methyltransferase SMYD1 (Homo sapiens), Q8NB12 (parent)
chain: MTIGRMENVEVFTAEGKGRGLKATKEFWAADIIFAERAYSAVVFDSLVNFVCHTCFKRQEKLHRCGQCKFAHYCDRTCQKDAWLNHKNECSAIKRYGKVPNENIRLAARIMWRVEREGTGLTEGCLVSVDDLQNHVEHFGEEEQKDLRVDVDTFLQYWPPQSQQFSMQYISHIFGVINCNGFTLSDQRGLQAVGVGIFPNLGLVNHDCWPNCTVIFNNGNHEAVKSMFHTQMRIELRALGKISEGEELTVSYIDFLNVSEERKRQLKKQYYFDCTCEHCQKKLKDDLFLGVKDNPKPSQEVVKEMIQFSKDTLEKIDKARSEGLYHEVVKLCRECLEKQEPVFADTNIYMLRMLSIVSEVLSYLQAFEEASFYARRMVDGYMKLYHPNNAQLGMAVMRAGLTNWHAGNIEVGHGMICKAYAILLVTHGPSHPITKDLEAMRVQTEMELRMFRQNEFMYYKMREAALNNQPMQVMAEPSNEPSPALFHKKQ
partner: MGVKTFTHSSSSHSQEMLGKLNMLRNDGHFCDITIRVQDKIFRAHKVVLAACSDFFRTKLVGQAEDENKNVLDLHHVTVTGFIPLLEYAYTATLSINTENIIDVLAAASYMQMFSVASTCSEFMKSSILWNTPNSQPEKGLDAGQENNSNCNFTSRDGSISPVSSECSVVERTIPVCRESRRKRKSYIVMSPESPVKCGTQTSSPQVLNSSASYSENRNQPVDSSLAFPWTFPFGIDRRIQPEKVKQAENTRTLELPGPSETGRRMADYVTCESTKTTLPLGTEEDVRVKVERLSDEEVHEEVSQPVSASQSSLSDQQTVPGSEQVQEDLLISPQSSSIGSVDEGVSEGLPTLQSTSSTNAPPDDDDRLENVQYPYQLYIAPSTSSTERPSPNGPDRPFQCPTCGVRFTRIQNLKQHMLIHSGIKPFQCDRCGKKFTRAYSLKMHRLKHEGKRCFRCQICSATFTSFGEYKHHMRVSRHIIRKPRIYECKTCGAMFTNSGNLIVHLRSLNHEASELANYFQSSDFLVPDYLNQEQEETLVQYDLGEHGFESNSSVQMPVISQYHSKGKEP
B4: Coiled-coil alpha-helical rod protein 1 (Homo sapiens), Q8TD31 (parent)
chain: B1 chain
partner: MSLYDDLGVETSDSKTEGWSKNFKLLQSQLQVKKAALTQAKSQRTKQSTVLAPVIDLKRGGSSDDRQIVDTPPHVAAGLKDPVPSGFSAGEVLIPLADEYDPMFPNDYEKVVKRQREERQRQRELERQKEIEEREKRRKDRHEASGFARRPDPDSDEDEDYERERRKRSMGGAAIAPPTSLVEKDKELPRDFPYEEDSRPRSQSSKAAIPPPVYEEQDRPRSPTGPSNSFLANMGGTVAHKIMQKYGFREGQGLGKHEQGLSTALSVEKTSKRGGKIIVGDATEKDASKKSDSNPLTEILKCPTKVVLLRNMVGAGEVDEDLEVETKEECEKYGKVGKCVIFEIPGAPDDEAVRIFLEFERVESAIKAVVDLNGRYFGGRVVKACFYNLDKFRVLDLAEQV

Variants of: B1
Settings: with goga2_human GOLGA2, Q08379
With W337R the “effect of a mutation on the interaction” value was “disrupting interaction strength”.

Variants of: B2
Settings: with CCDC102B
In the case of W337R, the “effect of a mutation on the interaction” value is reported as “disrupting interaction strength”.

Variants of: B3
Settings: with zbt44_human ZBTB44, Q8NCP5
In the case of Q443R, the “effect of a mutation on the interaction” value is reported as “disrupting interaction strength”.

Variants of: B4
Settings: with spf45_human RBM17, Q96I25
W337R was tested, and the “effect of a mutation on the interaction” value was “disrupting interaction strength”.
